From article PMC2169363

Columns and labels:
[1] = target: phosphorylated smooth muscle myosin (chicken gizzard) (chicken) (UniProt P10587); experiment: co-sedimentation
[2] = target: unphosphorylated smooth muscle myosin (chicken gizzard) (chicken) (UniProt P10587); experiment: co-sedimentation

Row | EC50 [1] | EC50 [2] | amount recovered in the precipitate with 1.1 μM myosin (4.0 μM added) [2] | Substance
1 | 1400 nM | 1700 nM | – | 38k protein (native, purified from chicken gizzard smooth muscle) (natural protein)
2 | – | 1800 nM | – | human p32 (recombinant) (from UniProt Q07021 74-282) (natural protein)
3 | – | – | 1 µM | recombinant 38k protein, full-length (1-207) (natural protein)
